Data from patent US12077763B2, “RNA-based control of powdery mildew” (Greenlight Biosciences, Inc., priority 2021, dated 2024).

B1: GS3625 (nucleic acid)
sense: GUUUGCCUUUCCAAAUAUCCAUCAUGCAGCUUUGUAACGUACCUCUCGUCCUGUUUGGUCUCCUCUGCUUUGGACUAGUUUCAACUGCUCCAGCACCAAACUCACCUUGGCAUCUACGAAGCCGACAGGAAGGUGGUGGCUACUAUGGCCAACCAUCGAAUGGUGAUGGAAGUGUGUAUCCACCUUCAUCUGGUACAGGUGGCUUUCUAUCGCCAACUGCUACGAGCGGUUAUCCGUCUGCAACUGGAACUGGCGGCUAUUCAUCUCCAUCGGGCACCGGUGGCUACCCGUCUGCAACAGGUACAGGUGGUUACGCAUCGCCAACAGGGACCAGUUACCCUACACCUACUGGAGGUUACUCUGAAGAGCCCUACCACUAUAAAGGUGUCAAGCUAGGUC
antisense: GACCUAGCUUGACACCUUUAUAGUGGUAGGGCUCUUCAGAGUAACCUCCAGUAGGUGUAGGGUAACUGGUCCCUGUUGGCGAUGCGUAACCACCUGUACCUGUUGCAGACGGGUAGCCACCGGUGCCCGAUGGAGAUGAAUAGCCGCCAGUUCCAGUUGCAGACGGAUAACCGCUCGUAGCAGUUGGCGAUAGAAAGCCACCUGUACCAGAUGAAGGUGGAUACACACUUCCAUCACCAUUCGAUGGUUGGCCAUAGUAGCCACCACCUUCCUGUCGGCUUCGUAGAUGCCAAGGUGAGUUUGGUGCUGGAGCAGUUGAAACUAGUCCAAAGCAGAGGAGACCAAACAGGACGAGAGGUACGUUACAAAGCUGCAUGAUGGAUAUUUGGAAAGGCAAAC
B2: GS3627 (nucleic acid)
sense: CUGUUUGGUCUCCUCUGCUUUGGACUAGUUUCAACUGCUCCAGCACCAAACUCACCUUGGCAUCUACGAAGCCGACAGGAAGGUGGUGGCUACUAUGGCCAACCAUCGAAUGGUGAUGGAAGUGUGUAUCCACCUUCAUCUGGUACAGGUGGCUUUCUAUCGCCAACUGCUACGAGCGGUUAUCCGUCUGCAACUGGAACUGGCGGCUAUUCAUCUCCAUCGGGCACCGGUGGCUACCCGUCUGCAACAGGUACAGGUGGUUACGCAUCGCCAACAGGGACCAGUUACCCUACACCUAC
antisense: GUAGGUGUAGGGUAACUGGUCCCUGUUGGCGAUGCGUAACCACCUGUACCUGUUGCAGACGGGUAGCCACCGGUGCCCGAUGGAGAUGAAUAGCCGCCAGUUCCAGUUGCAGACGGAUAACCGCUCGUAGCAGUUGGCGAUAGAAAGCCACCUGUACCAGAUGAAGGUGGAUACACACUUCCAUCACCAUUCGAUGGUUGGCCAUAGUAGCCACCACCUUCCUGUCGGCUUCGUAGAUGCCAAGGUGAGUUUGGUGCUGGAGCAGUUGAAACUAGUCCAAAGCAGAGGAGACCAAACAG
B3: GS3916 (nucleic acid)
sense: UUACAAUCCAUGCACCAUCCAUUAAGCGAAAAUAAACCAUCACUGUUGAGAAAGAAGUUAAACGUGAUUUGAGCUGUUAUAAGAGUUGAGUUUAACACAGUAUUUUGAAUUUGUUCUAAUCCUGUACUUGCUAUUUUUGAAUCUUCGAGUGAUGGUGCAAGAUCAACGUUGAAGUGUAUGAUAGAAUCUGGUGCAGUUUCGGUACUUAAGUACAGAUAUGUUGCAAUGCCAAAACUAUCACUAGCACCACGCAUAGCAAAGAAAAUAUCGGGAUUUGUAUCAUCACUGGCGAAAAUUUCCUGUCCAUCAGCAAGAAUAACAUCCAUACCAACGAUGUGAUCA
antisense: UGAUCACAUCGUUGGUAUGGAUGUUAUUCUUGCUGAUGGACAGGAAAUUUUCGCCAGUGAUGAUACAAAUCCCGAUAUUUUCUUUGCUAUGCGUGGUGCUAGUGAUAGUUUUGGCAUUGCAACAUAUCUGUACUUAAGUACCGAAACUGCACCAGAUUCUAUCAUACACUUCAACGUUGAUCUUGCACCAUCACUCGAAGAUUCAAAAAUAGCAAGUACAGGAUUAGAACAAAUUCAAAAUACUGUGUUAAACUCAACUCUUAUAACAGCUCAAAUCACGUUUAACUUCUUUCUCAACAGUGAUGGUUUAUUUUCGCUUAAUGGAUGGUGCAUGGAUUGUAA
B4: GS3623 (nucleic acid)
sense: AGUUUCUUACGUUGUAGCGCCGAAGCUUCUCUAAGUUUAAUCUCUGAUGGAGAUAAAACGUUAUAUAUAGGCGUACCAACAGCAAUUGUCCCCUCUUUAAGUAGAUAUAACUUUCGCUUAUCUUUGUCUCGGUCAGUGCGGAAGUUUGUCCCAGCUUCUGUAAGUUUUACAGCUUUUUCUCGAUUAACUGCUCUUGACACUUGAAGUACGCGACCUUCUAUUGUGUAUAAGCCAUUCUUAUCAGCAGUUUCAUCCUCUAAAAUAGAGUUUUUAGCUUUAACAGCGUUUGCACCACUUUUGAAGGUACGAGGUGCACCAUGGUAACAAGAGUCCGCAUCUUCUUGUCUAUA
antisense: UAUAGACAAGAAGAUGCGGACUCUUGUUACCAUGGUGCACCUCGUACCUUCAAAAGUGGUGCAAACGCUGUUAAAGCUAAAAACUCUAUUUUAGAGGAUGAAACUGCUGAUAAGAAUGGCUUAUACACAAUAGAAGGUCGCGUACUUCAAGUGUCAAGAGCAGUUAAUCGAGAAAAAGCUGUAAAACUUACAGAAGCUGGGACAAACUUCCGCACUGACCGAGACAAAGAUAAGCGAAAGUUAUAUCUACUUAAAGAGGGGACAAUUGCUGUUGGUACGCCUAUAUAUAACGUUUUAUCUCCAUCAGAGAUUAAACUUAGAGAAGCUUCGGCGCUACAACGUAAGAAACU
B5: GS3628 (nucleic acid)
sense: UAGUUUCAACUGCUCCAGCACCAAACUCACCUUGGCAUCUACGAAGCCGACAGGAAGGUGGUGGCUACUAUGGCCAACCAUCGAAUGGUGAUGGAAGUGUGUAUCCACCUUCAUCUGGUACAGGUGGCUUUCUAUCGCCAACUGCUACGAGCGGUUAUCCGUCUGCAACUGGAACUGGCGGCUAUUCAUCUCCAUCGGGCACCGGUGGCUACCCGUCUGCAACAGGUACAGGUGGUUACGCAUCGCCAA
antisense: UUGGCGAUGCGUAACCACCUGUACCUGUUGCAGACGGGUAGCCACCGGUGCCCGAUGGAGAUGAAUAGCCGCCAGUUCCAGUUGCAGACGGAUAACCGCUCGUAGCAGUUGGCGAUAGAAAGCCACCUGUACCAGAUGAAGGUGGAUACACACUUCCAUCACCAUUCGAUGGUUGGCCAUAGUAGCCACCACCUUCCUGUCGGCUUCGUAGAUGCCAAGGUGAGUUUGGUGCUGGAGCAGUUGAAACUA
B6: GS3626 (nucleic acid)
sense: GCAGCUUUGUAACGUACCUCUCGUCCUGUUUGGUCUCCUCUGCUUUGGACUAGUUUCAACUGCUCCAGCACCAAACUCACCUUGGCAUCUACGAAGCCGACAGGAAGGUGGUGGCUACUAUGGCCAACCAUCGAAUGGUGAUGGAAGUGUGUAUCCACCUUCAUCUGGUACAGGUGGCUUUCUAUCGCCAACUGCUACGAGCGGUUAUCCGUCUGCAACUGGAACUGGCGGCUAUUCAUCUCCAUCGGGCACCGGUGGCUACCCGUCUGCAACAGGUACAGGUGGUUACGCAUCGCCAACAGGGACCAGUUACCCUACACCUACUGGAGGUUACUCUGAAGAGCCCUAC
antisense: GUAGGGCUCUUCAGAGUAACCUCCAGUAGGUGUAGGGUAACUGGUCCCUGUUGGCGAUGCGUAACCACCUGUACCUGUUGCAGACGGGUAGCCACCGGUGCCCGAUGGAGAUGAAUAGCCGCCAGUUCCAGUUGCAGACGGAUAACCGCUCGUAGCAGUUGGCGAUAGAAAGCCACCUGUACCAGAUGAAGGUGGAUACACACUUCCAUCACCAUUCGAUGGUUGGCCAUAGUAGCCACCACCUUCCUGUCGGCUUCGUAGAUGCCAAGGUGAGUUUGGUGCUGGAGCAGUUGAAACUAGUCCAAAGCAGAGGAGACCAAACAGGACGAGAGGUACGUUACAAAGCUGC
B7: GS3673 (nucleic acid)
sense: AACUACUAACCUCGCCGCCCUAUAUAAGAAGAUGGGAACGCAAAAUCGUGUCAAUUUGAAAGAAAAGUUAAAAGGAAUGCGAAUCCAAAUCACACAUCUGCCCCCAAAGAUUAAUAAAACAACCGGAAAGGUUAUACCAAGGAUUAAAACCAUUCAAGGCCUUGCAAAUAUUAAUGAUGGUGCCAAAGAGGAGCAUCGACCAGAGGUUGCUGGAUAUGGUGCUGGUCCUCAAAAGGUCAAGUUUUGGGUAUCUGAAGAUACUGGCACUUCUAAAACCAGCCAAAAAAACCCCUUGCCAUCUAACACUUACAUCAGUGUAUAUGAUUACUUCAAAAAAAGAUACCCAAAGAUUGAAUUGGAUCCAAUAAAUCCUGUAGUUAAUGUUGGAAACAGUGAA
antisense: UUCACUGUUUCCAACAUUAACUACAGGAUUUAUUGGAUCCAAUUCAAUCUUUGGGUAUCUUUUUUUGAAGUAAUCAUAUACACUGAUGUAAGUGUUAGAUGGCAAGGGGUUUUUUUGGCUGGUUUUAGAAGUGCCAGUAUCUUCAGAUACCCAAAACUUGACCUUUUGAGGACCAGCACCAUAUCCAGCAACCUCUGGUCGAUGCUCCUCUUUGGCACCAUCAUUAAUAUUUGCAAGGCCUUGAAUGGUUUUAAUCCUUGGUAUAACCUUUCCGGUUGUUUUAUUAAUCUUUGGGGGCAGAUGUGUGAUUUGGAUUCGCAUUCCUUUUAACUUUUCUUUCAAAUUGACACGAUUUUGCGUUCCCAUCUUCUUAUAUAGGGCGGCGAGGUUAGUAGUU
B8: GS3672 (nucleic acid)
sense: UUCCUGGACAACCAGUAAAGAAAAAGUUGGGACCAAAUCAAACACAAGAAAUGAUAAAGUUUGCAUGUCGAACACCUGCCCAAAAUGCUACCUCAGUUGUUCAAGAUGGAAGACAUGUUUUGAGCCUGAACUCUAGCAACCCUGUUCUAUCUGAAUUUGGCCUUCAAGUAGGUCAGUCUUUGAUAUCAGUAAAUGCUCGAGUACUACAACCACCGUCUGUGAGAUAUGGAGGAUCUGGAAGUCUAUCACCGAGAAAUGGUAGUUGGAAUAUGAUUAACGUGAGAUUUCAUACACCCGCCAAAAUCGGACCAUGGACUUGUAUUAUGUUUCCCACCCAAGGAAGAAAUGACAUUGAUGUUGGUAAUAUGAGAUCACAUGUCACUGCUUUCCAAGCACA
antisense: UGUGCUUGGAAAGCAGUGACAUGUGAUCUCAUAUUACCAACAUCAAUGUCAUUUCUUCCUUGGGUGGGAAACAUAAUACAAGUCCAUGGUCCGAUUUUGGCGGGUGUAUGAAAUCUCACGUUAAUCAUAUUCCAACUACCAUUUCUCGGUGAUAGACUUCCAGAUCCUCCAUAUCUCACAGACGGUGGUUGUAGUACUCGAGCAUUUACUGAUAUCAAAGACUGACCUACUUGAAGGCCAAAUUCAGAUAGAACAGGGUUGCUAGAGUUCAGGCUCAAAACAUGUCUUCCAUCUUGAACAACUGAGGUAGCAUUUUGGGCAGGUGUUCGACAUGCAAACUUUAUCAUUUCUUGUGUUUGAUUUGGUCCCAACUUUUUCUUUACUGGUUGUCCAGGAA

What follows are molecules tested on E. necator (assay: Leaf disc assay, dry inoculum (settling tower), decrease in disease severity / hyphal growth (Example 2)). Conditions: decrease in disease severity (hyphal growth) relative to untreated control; time point 1 (untreated control hyphal growth ≥50%); value ± SE.

Molecule | % decrease =/− SE TP1
B1 | 1 ± 2%
B2 | 30 ± 3%
B3 | 11 ± 9%
B4 | 20 ± 3%
B5 | 12 ± 2%
B6 | 3 ± 7%
B7 | 34 ± 4%
B8 | 34 ± 4%

Same assay, conditions: decrease in disease severity (hyphal growth) relative to untreated control; time point 2; value ± SE

Molecule | % decrease =/− SE TP2
B1 | 0 ± 3%
B2 | 29 ± 6%
B5 | 7 ± 5%
B6 | 26 ± 7%
B7 | 29 ± 6%
B8 | 26 ± 7%
